Test results: patent publication EP1758924B1 (Council of Scientific and Industrial Research, dated 2005)

Target: T1, Hsp16.3 (16 kDa alpha-crystallin like heat-shock protein of Mycobacterium tuberculosis), recombinant, 6 X His … (Mycobacterium tuberculosis)
T1 construct: also called M. tuberculosis Acr (Hsp16.3) protein
Experiment: reverse phage ELISA on coated Hsp16.3, anti-M13-HRP, A405

B1: phage clone displaying peptide sequence Seq ID 21 (Tyr-Pro-His-His-Phe-Lys-His-Arg-His-Ile-Pro-Ile), from the Ph.D.-12 library on bacteriophage M13 (peptide)
peptide: YPHHFKHRHIPI
notes: Tested as whole phage in the reverse phage ELISA; not shown: fused to an M13 coat protein (spacer Gly-Gly-Gly-Ser is named)
fold binding over BSA background: ~3 fold
